The text below walks through data of publication PMC2098691, “Regulation of the Xenopus Xsox17α1 promoter by co-operating VegT and Sox17 sites”.

T1: VegT (Xenopus, UniProt P87377 1-455)
T1 sequence: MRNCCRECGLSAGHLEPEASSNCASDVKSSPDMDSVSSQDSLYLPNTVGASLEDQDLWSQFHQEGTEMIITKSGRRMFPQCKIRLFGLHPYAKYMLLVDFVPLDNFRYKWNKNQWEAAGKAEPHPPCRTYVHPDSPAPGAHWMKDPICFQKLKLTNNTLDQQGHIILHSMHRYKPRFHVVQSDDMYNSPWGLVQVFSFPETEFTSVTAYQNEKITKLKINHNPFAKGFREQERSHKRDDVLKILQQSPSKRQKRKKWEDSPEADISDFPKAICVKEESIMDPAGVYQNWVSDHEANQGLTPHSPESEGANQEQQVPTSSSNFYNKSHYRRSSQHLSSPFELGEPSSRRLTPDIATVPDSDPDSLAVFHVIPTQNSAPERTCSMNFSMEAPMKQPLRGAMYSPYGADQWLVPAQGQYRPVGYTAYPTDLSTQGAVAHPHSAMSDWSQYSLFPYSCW

B1: B1 T-box mutant (dsDNA)
DNA 1: TCTCCAGAGTACGCACATTCATTGTTTGTTA
DNA 2: TAACAAACAATGAATGTGCGTACTCTGGAGA
B2: B1 T-box probe (dsDNA)
DNA 1: TGTCCAGAGTTCACACCATCATTGTTTGTTA
DNA 2: TAACAAACAATGATGGTGTGAACTCTGGACA
B3: T-box consensus (Derrière) (dsDNA)
DNA 1: TCTCCAGAGTTCACACCTTCATTGTTTGTTA
DNA 2: TAACAAACAATGAAGGTGTGAACTCTGGAGA

In the data set the target is T1, VegT. Nature of the data set: EMSA; poly(dI.dC); 15 µl with 3 µl MDB buffer (20 mM HEPES pH 7.9, 100 mM KCl, 12.5 mM MgCl2, 0.1 mM EDTA, 17% glycerol, 2 mM DTT (printed DDT)), 2 µg poly(dI.dC), 1 µl IVT protein, 10 min + 10 min (preincubation at 30 °C); 15% gel at 4 °C; 50-fold competitor in controls. To be noted: label: 5' 32P (forward strand), blunt.
Take B1: the binding result is “no binding”. Turning to B2, the binding result is “binds”.

Turning to B3, the binding result is listed as “binds”.
